The results in this text go back to article doi:10.1101/2025.08.03.668247, “The structure of Egalitarian in complex with the K10 mRNA localization signal reveals a modular binding surface required for function”.

Experiment in all cases: fluorescence anisotropy; FA: 20 mM HEPES-NaOH pH 7.5, 100 mM NaCl, 10% glycerol, 20 C, 10 nM FAM-RNA; competition: 150 nM Egl512-819 + 10 nM FAM-K10 TLS, same buffer
Holding throughout (conditions): protein: recombinant; tags: N-terminal GST; label: 5'-6-FAM; hairpin with two bulges

Data set [1] addresses T1, K751A (Drosophila melanogaster, UniProt Q9W1K4 512-819, K751A).
T1 sequence: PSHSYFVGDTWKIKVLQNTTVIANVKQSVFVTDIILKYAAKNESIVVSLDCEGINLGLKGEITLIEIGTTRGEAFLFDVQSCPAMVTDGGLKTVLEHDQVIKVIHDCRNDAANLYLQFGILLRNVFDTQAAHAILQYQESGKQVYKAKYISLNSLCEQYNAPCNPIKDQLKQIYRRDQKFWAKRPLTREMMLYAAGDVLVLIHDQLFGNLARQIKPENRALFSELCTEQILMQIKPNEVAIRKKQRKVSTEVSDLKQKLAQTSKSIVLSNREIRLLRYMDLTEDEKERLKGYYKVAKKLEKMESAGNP

In data set [2] the target is T2, R753A (Drosophila melanogaster, UniProt Q9W1K4 512-819, R753A).
T2 sequence: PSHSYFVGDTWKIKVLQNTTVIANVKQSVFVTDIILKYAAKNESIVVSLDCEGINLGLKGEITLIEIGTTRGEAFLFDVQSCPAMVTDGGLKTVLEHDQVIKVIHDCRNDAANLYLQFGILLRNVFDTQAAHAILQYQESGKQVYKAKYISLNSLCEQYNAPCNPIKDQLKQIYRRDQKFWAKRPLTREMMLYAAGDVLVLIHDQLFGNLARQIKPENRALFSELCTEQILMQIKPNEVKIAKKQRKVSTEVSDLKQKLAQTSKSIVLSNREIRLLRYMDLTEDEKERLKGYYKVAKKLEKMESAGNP

The target in data set [3] is T3, R619E (Drosophila melanogaster, UniProt Q9W1K4 512-819, R619E).
T3 sequence: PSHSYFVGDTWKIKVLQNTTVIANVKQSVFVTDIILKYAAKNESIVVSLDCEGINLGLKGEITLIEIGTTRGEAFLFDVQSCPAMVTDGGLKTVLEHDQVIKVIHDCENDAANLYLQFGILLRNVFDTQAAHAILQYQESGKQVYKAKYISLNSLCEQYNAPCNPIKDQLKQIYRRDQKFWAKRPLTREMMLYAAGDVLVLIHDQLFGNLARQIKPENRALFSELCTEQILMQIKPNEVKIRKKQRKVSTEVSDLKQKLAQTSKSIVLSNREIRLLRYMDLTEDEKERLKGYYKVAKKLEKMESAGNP

The target in data set [4] is T4, D617A/R619A/N620A (Drosophila melanogaster, UniProt Q9W1K4 512-819, D617A;R619A;N620A).
T4 sequence: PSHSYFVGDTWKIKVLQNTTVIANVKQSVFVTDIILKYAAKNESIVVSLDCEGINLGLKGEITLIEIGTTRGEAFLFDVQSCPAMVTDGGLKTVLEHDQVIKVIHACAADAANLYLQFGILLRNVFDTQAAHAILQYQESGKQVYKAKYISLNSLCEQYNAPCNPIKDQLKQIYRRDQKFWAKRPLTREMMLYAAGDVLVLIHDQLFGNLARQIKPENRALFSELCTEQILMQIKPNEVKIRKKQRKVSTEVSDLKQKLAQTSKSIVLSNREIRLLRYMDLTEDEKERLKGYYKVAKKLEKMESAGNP

For data set [5], the target named is T5, Egl512-931 (Drosophila melanogaster, UniProt Q9W1K4 512-931).
T5 sequence: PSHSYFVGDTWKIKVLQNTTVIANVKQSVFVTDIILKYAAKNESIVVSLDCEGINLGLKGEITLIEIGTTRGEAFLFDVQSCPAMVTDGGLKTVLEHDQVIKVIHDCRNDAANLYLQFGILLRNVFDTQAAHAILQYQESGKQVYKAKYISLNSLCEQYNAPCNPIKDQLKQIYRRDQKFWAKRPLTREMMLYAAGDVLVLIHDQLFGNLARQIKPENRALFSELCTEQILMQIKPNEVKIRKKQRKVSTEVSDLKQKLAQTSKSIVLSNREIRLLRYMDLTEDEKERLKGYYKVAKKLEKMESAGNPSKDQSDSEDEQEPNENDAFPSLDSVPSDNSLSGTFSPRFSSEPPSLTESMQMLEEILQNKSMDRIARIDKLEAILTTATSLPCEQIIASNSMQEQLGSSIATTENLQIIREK

B1: K10 TLS (FAM) (structured_RNA)
RNA: CUUGAUUGUAUUUUUAAAUUAAUUCUUAAAAACUACAAAUUAAG
For B1, the Kd in data set [1] is 140 ± 10 nM; in data set [2] it was 95 ± 5 nM; in data set [3], 318 ± 15 nM; in data set [4] it was 273 ± 12 nM; in data set [5], 164 ± 7 nM.
